Test results reported in US20210388087A1.

Molecular target: Human CD3eg linker (human)
Experiment: SPR; fold vs parent H183/L072

Sequence of Human CD3eg linker (human) (chain, as listed by the source limits assumed): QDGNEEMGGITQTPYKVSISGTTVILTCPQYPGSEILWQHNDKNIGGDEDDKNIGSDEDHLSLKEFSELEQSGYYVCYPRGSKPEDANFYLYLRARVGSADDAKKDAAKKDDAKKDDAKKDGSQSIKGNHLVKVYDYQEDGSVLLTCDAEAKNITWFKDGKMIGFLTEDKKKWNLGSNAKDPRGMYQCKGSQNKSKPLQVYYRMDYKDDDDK

fold change of affinity | Binder
0 fold | H183/L072 VL N28V (antibody, name in Kabat numbering, V domains shown) VH: QVQLVESGGGLVQPGRSLRLSCAASGFTFSNAWMHWVRQAPGKGLEWVAQIKDKGNAYAAYYAPSVKGRFTISRDDSKNSIYLQMNSLKTEDTAVYYCHYVHYASASTVLPAFGVDAWGQGTTVTVSS VL: DIVMTQSPLSLPVTPGEPASISCQASQELVHMVRNTYLHWYQQKPGQAPRLLIYKVSNRFPGVPDRFSGSGSGTDFTLKISRVEAEDVGVYYCAQGTSVPFTFGQGTKLEIK
0 fold | H183/L072 VL N28Y (antibody, name in Kabat numbering, V domains shown) VH: QVQLVESGGGLVQPGRSLRLSCAASGFTFSNAWMHWVRQAPGKGLEWVAQIKDKGNAYAAYYAPSVKGRFTISRDDSKNSIYLQMNSLKTEDTAVYYCHYVHYASASTVLPAFGVDAWGQGTTVTVSS VL: DIVMTQSPLSLPVTPGEPASISCQASQELVHMYRNTYLHWYQQKPGQAPRLLIYKVSNRFPGVPDRFSGSGSGTDFTLKISRVEAEDVGVYYCAQGTSVPFTFGQGTKLEIK
0 fold | H183/L072 VL V27cG (antibody, name in Kabat numbering, V domains shown) VH: QVQLVESGGGLVQPGRSLRLSCAASGFTFSNAWMHWVRQAPGKGLEWVAQIKDKGNAYAAYYAPSVKGRFTISRDDSKNSIYLQMNSLKTEDTAVYYCHYVHYASASTVLPAFGVDAWGQGTTVTVSS VL: DIVMTQSPLSLPVTPGEPASISCQASQELGHMNRNTYLHWYQQKPGQAPRLLIYKVSNRFPGVPDRFSGSGSGTDFTLKISRVEAEDVGVYYCAQGTSVPFTFGQGTKLEIK
0 fold | H183/L072 VL T31Y (antibody, name in Kabat numbering, V domains shown) VH: QVQLVESGGGLVQPGRSLRLSCAASGFTFSNAWMHWVRQAPGKGLEWVAQIKDKGNAYAAYYAPSVKGRFTISRDDSKNSIYLQMNSLKTEDTAVYYCHYVHYASASTVLPAFGVDAWGQGTTVTVSS VL: DIVMTQSPLSLPVTPGEPASISCQASQELVHMNRNYYLHWYQQKPGQAPRLLIYKVSNRFPGVPDRFSGSGSGTDFTLKISRVEAEDVGVYYCAQGTSVPFTFGQGTKLEIK
0 fold | H183/L072 VL Y32V (antibody, name in Kabat numbering, V domains shown) VH: QVQLVESGGGLVQPGRSLRLSCAASGFTFSNAWMHWVRQAPGKGLEWVAQIKDKGNAYAAYYAPSVKGRFTISRDDSKNSIYLQMNSLKTEDTAVYYCHYVHYASASTVLPAFGVDAWGQGTTVTVSS VL: DIVMTQSPLSLPVTPGEPASISCQASQELVHMNRNTVLHWYQQKPGQAPRLLIYKVSNRFPGVPDRFSGSGSGTDFTLKISRVEAEDVGVYYCAQGTSVPFTFGQGTKLEIK
0 fold | H183/L072 VL N28W (antibody, name in Kabat numbering, V domains shown) VH: QVQLVESGGGLVQPGRSLRLSCAASGFTFSNAWMHWVRQAPGKGLEWVAQIKDKGNAYAAYYAPSVKGRFTISRDDSKNSIYLQMNSLKTEDTAVYYCHYVHYASASTVLPAFGVDAWGQGTTVTVSS VL: DIVMTQSPLSLPVTPGEPASISCQASQELVHMWRNTYLHWYQQKPGQAPRLLIYKVSNRFPGVPDRFSGSGSGTDFTLKISRVEAEDVGVYYCAQGTSVPFTFGQGTKLEIK
0 fold | H183/L072 VL N28F (antibody, name in Kabat numbering, V domains shown) VH: QVQLVESGGGLVQPGRSLRLSCAASGFTFSNAWMHWVRQAPGKGLEWVAQIKDKGNAYAAYYAPSVKGRFTISRDDSKNSIYLQMNSLKTEDTAVYYCHYVHYASASTVLPAFGVDAWGQGTTVTVSS VL: DIVMTQSPLSLPVTPGEPASISCQASQELVHMFRNTYLHWYQQKPGQAPRLLIYKVSNRFPGVPDRFSGSGSGTDFTLKISRVEAEDVGVYYCAQGTSVPFTFGQGTKLEIK
0 fold | H183/L072 VL T31F (antibody, name in Kabat numbering, V domains shown) VH: QVQLVESGGGLVQPGRSLRLSCAASGFTFSNAWMHWVRQAPGKGLEWVAQIKDKGNAYAAYYAPSVKGRFTISRDDSKNSIYLQMNSLKTEDTAVYYCHYVHYASASTVLPAFGVDAWGQGTTVTVSS VL: DIVMTQSPLSLPVTPGEPASISCQASQELVHMNRNFYLHWYQQKPGQAPRLLIYKVSNRFPGVPDRFSGSGSGTDFTLKISRVEAEDVGVYYCAQGTSVPFTFGQGTKLEIK
0 fold | H183/L072 VL Y32F (antibody, name in Kabat numbering, V domains shown) VH: QVQLVESGGGLVQPGRSLRLSCAASGFTFSNAWMHWVRQAPGKGLEWVAQIKDKGNAYAAYYAPSVKGRFTISRDDSKNSIYLQMNSLKTEDTAVYYCHYVHYASASTVLPAFGVDAWGQGTTVTVSS VL: DIVMTQSPLSLPVTPGEPASISCQASQELVHMNRNTFLHWYQQKPGQAPRLLIYKVSNRFPGVPDRFSGSGSGTDFTLKISRVEAEDVGVYYCAQGTSVPFTFGQGTKLEIK
0 fold | H183/L072 VL N28R (antibody, name in Kabat numbering, V domains shown) VH: QVQLVESGGGLVQPGRSLRLSCAASGFTFSNAWMHWVRQAPGKGLEWVAQIKDKGNAYAAYYAPSVKGRFTISRDDSKNSIYLQMNSLKTEDTAVYYCHYVHYASASTVLPAFGVDAWGQGTTVTVSS VL: DIVMTQSPLSLPVTPGEPASISCQASQELVHMRRNTYLHWYQQKPGQAPRLLIYKVSNRFPGVPDRFSGSGSGTDFTLKISRVEAEDVGVYYCAQGTSVPFTFGQGTKLEIK
0 fold | H183/L072 VL Y32W (antibody, name in Kabat numbering, V domains shown) VH: QVQLVESGGGLVQPGRSLRLSCAASGFTFSNAWMHWVRQAPGKGLEWVAQIKDKGNAYAAYYAPSVKGRFTISRDDSKNSIYLQMNSLKTEDTAVYYCHYVHYASASTVLPAFGVDAWGQGTTVTVSS VL: DIVMTQSPLSLPVTPGEPASISCQASQELVHMNRNTWLHWYQQKPGQAPRLLIYKVSNRFPGVPDRFSGSGSGTDFTLKISRVEAEDVGVYYCAQGTSVPFTFGQGTKLEIK
0 fold | H183/L072 VL T31W (antibody, name in Kabat numbering, V domains shown) VH: QVQLVESGGGLVQPGRSLRLSCAASGFTFSNAWMHWVRQAPGKGLEWVAQIKDKGNAYAAYYAPSVKGRFTISRDDSKNSIYLQMNSLKTEDTAVYYCHYVHYASASTVLPAFGVDAWGQGTTVTVSS VL: DIVMTQSPLSLPVTPGEPASISCQASQELVHMNRNWYLHWYQQKPGQAPRLLIYKVSNRFPGVPDRFSGSGSGTDFTLKISRVEAEDVGVYYCAQGTSVPFTFGQGTKLEIK

More lines, now with the values behind:

Binder | fold change of affinity
H183/L072 VL H34V (antibody, name in Kabat numbering, V domains shown) VH: QVQLVESGGGLVQPGRSLRLSCAASGFTFSNAWMHWVRQAPGKGLEWVAQIKDKGNAYAAYYAPSVKGRFTISRDDSKNSIYLQMNSLKTEDTAVYYCHYVHYASASTVLPAFGVDAWGQGTTVTVSS VL: DIVMTQSPLSLPVTPGEPASISCQASQELVHMNRNTYLVWYQQKPGQAPRLLIYKVSNRFPGVPDRFSGSGSGTDFTLKISRVEAEDVGVYYCAQGTSVPFTFGQGTKLEIK | 0 fold
H183/L072 VL L27bG (antibody, name in Kabat numbering, V domains shown) VH: QVQLVESGGGLVQPGRSLRLSCAASGFTFSNAWMHWVRQAPGKGLEWVAQIKDKGNAYAAYYAPSVKGRFTISRDDSKNSIYLQMNSLKTEDTAVYYCHYVHYASASTVLPAFGVDAWGQGTTVTVSS VL: DIVMTQSPLSLPVTPGEPASISCQASQEGVHMNRNTYLHWYQQKPGQAPRLLIYKVSNRFPGVPDRFSGSGSGTDFTLKISRVEAEDVGVYYCAQGTSVPFTFGQGTKLEIK | 0 fold
H183/L072 VL H27dR (antibody, name in Kabat numbering, V domains shown) VH: QVQLVESGGGLVQPGRSLRLSCAASGFTFSNAWMHWVRQAPGKGLEWVAQIKDKGNAYAAYYAPSVKGRFTISRDDSKNSIYLQMNSLKTEDTAVYYCHYVHYASASTVLPAFGVDAWGQGTTVTVSS VL: DIVMTQSPLSLPVTPGEPASISCQASQELVRMNRNTYLHWYQQKPGQAPRLLIYKVSNRFPGVPDRFSGSGSGTDFTLKISRVEAEDVGVYYCAQGTSVPFTFGQGTKLEIK | 0 fold
H183/L072 VL L33Y (antibody, name in Kabat numbering, V domains shown) VH: QVQLVESGGGLVQPGRSLRLSCAASGFTFSNAWMHWVRQAPGKGLEWVAQIKDKGNAYAAYYAPSVKGRFTISRDDSKNSIYLQMNSLKTEDTAVYYCHYVHYASASTVLPAFGVDAWGQGTTVTVSS VL: DIVMTQSPLSLPVTPGEPASISCQASQELVHMNRNTYYHWYQQKPGQAPRLLIYKVSNRFPGVPDRFSGSGSGTDFTLKISRVEAEDVGVYYCAQGTSVPFTFGQGTKLEIK | 0 fold
H183/L072 VL L27bW (antibody, name in Kabat numbering, V domains shown) VH: QVQLVESGGGLVQPGRSLRLSCAASGFTFSNAWMHWVRQAPGKGLEWVAQIKDKGNAYAAYYAPSVKGRFTISRDDSKNSIYLQMNSLKTEDTAVYYCHYVHYASASTVLPAFGVDAWGQGTTVTVSS VL: DIVMTQSPLSLPVTPGEPASISCQASQEWVHMNRNTYLHWYQQKPGQAPRLLIYKVSNRFPGVPDRFSGSGSGTDFTLKISRVEAEDVGVYYCAQGTSVPFTFGQGTKLEIK | 0 fold
H183/L072 VL H27dW (antibody, name in Kabat numbering, V domains shown) VH: QVQLVESGGGLVQPGRSLRLSCAASGFTFSNAWMHWVRQAPGKGLEWVAQIKDKGNAYAAYYAPSVKGRFTISRDDSKNSIYLQMNSLKTEDTAVYYCHYVHYASASTVLPAFGVDAWGQGTTVTVSS VL: DIVMTQSPLSLPVTPGEPASISCQASQELVWMNRNTYLHWYQQKPGQAPRLLIYKVSNRFPGVPDRFSGSGSGTDFTLKISRVEAEDVGVYYCAQGTSVPFTFGQGTKLEIK | 0 fold
H183/L072 VL K50A (antibody, name in Kabat numbering, V domains shown) VH: QVQLVESGGGLVQPGRSLRLSCAASGFTFSNAWMHWVRQAPGKGLEWVAQIKDKGNAYAAYYAPSVKGRFTISRDDSKNSIYLQMNSLKTEDTAVYYCHYVHYASASTVLPAFGVDAWGQGTTVTVSS VL: DIVMTQSPLSLPVTPGEPASISCQASQELVHMNRNTYLHWYQQKPGQAPRLLIYAVSNRFPGVPDRFSGSGSGTDFTLKISRVEAEDVGVYYCAQGTSVPFTFGQGTKLEIK | 0 fold
H183/L072 VL H27dY (antibody, name in Kabat numbering, V domains shown) VH: QVQLVESGGGLVQPGRSLRLSCAASGFTFSNAWMHWVRQAPGKGLEWVAQIKDKGNAYAAYYAPSVKGRFTISRDDSKNSIYLQMNSLKTEDTAVYYCHYVHYASASTVLPAFGVDAWGQGTTVTVSS VL: DIVMTQSPLSLPVTPGEPASISCQASQELVYMNRNTYLHWYQQKPGQAPRLLIYKVSNRFPGVPDRFSGSGSGTDFTLKISRVEAEDVGVYYCAQGTSVPFTFGQGTKLEIK | 0 fold
H183/L072 VL L33W (antibody, name in Kabat numbering, V domains shown) VH: QVQLVESGGGLVQPGRSLRLSCAASGFTFSNAWMHWVRQAPGKGLEWVAQIKDKGNAYAAYYAPSVKGRFTISRDDSKNSIYLQMNSLKTEDTAVYYCHYVHYASASTVLPAFGVDAWGQGTTVTVSS VL: DIVMTQSPLSLPVTPGEPASISCQASQELVHMNRNTYWHWYQQKPGQAPRLLIYKVSNRFPGVPDRFSGSGSGTDFTLKISRVEAEDVGVYYCAQGTSVPFTFGQGTKLEIK | 0 fold
